Data published in the RNAGym collection of RNA variant scans (doi:10.1093/molbev/msab373).

B1: Azoarcus group I ribozyme (parent)
chain: GUGCCUUGCGCCGGGAAACCACGCAAGGGAUGGUGUCAAAUUCGGCGAAACCUAAGCGCCCGCCCGGGCGUAUGGCAACGCCGAGCCAAGCUUCGGCGCCUGCGCCGAUGAAGGUGUAGAGACUAGACGGCACCCACCUAAGGCAAACGCUAUGGUGAAGGCAUAGUCCAGGGAGUGGCGAAAGUCACACAAACCGG

Variants of: B1
Assay: reverse-splicing fitness (ratio to wild type); higher = more active; in vitro selection; Mg2+ level not given
Summary of the method: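 An in vitro group I ribozyme library with randomized positions was T7-transcribed and gel-purified. In triplicate, 10 pmol RNA in EPPS pH 7.5 was reacted with 50 pmoles of a 30-nt RNA substrate for 1 h at 37 °C across several added MgCl2 levels (1–48 mM), then stopped with EDTA. Products were reverse transcribed from a substrate-complementary primer, PCR-amplified and sequenced (HiSeq 4000). Fitness is a variant's read proportion after selection over that before, normalised to wild type.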

Row | Variant | reverse-splicing fitness
1 | C82G A111G A120G A145C C150A | 0.00699
2 | C82G A111G A120G A145C C150A C169A | 0.00854
3 | C82G A111G A120G A145C C150A C169A U176A | 0.0139
4 | C82G A111G A120G A145C C150A C169A U176C | 0.00767
5 | C82G A111G A120G A145C C150A C169A U176G | 0.00537
6 | C82G A111G A120G A145C C150A C169G | 0.00843
7 | C82G A111G A120G A145C C150A C169G U176A | 0.0249
8 | C82G A111G A120G A145C C150A C169G U176C | 0.0187
9 | C82G A111G A120G A145C C150A C169G U176G | 0.00603
10 | C82G A111G A120G A145C C150A C169U | 0.0075
11 | C82G A111G A120G A145C C150A C169U U176A | 0.021
12 | C82G A111G A120G A145C C150A C169U U176C | 0.0128
13 | C82G A111G A120G A145C C150A C169U U176G | 0.00551
14 | C82G A111G A120G A145C C150A U176A | 0.0127
15 | C82G A111G A120G A145C C150A U176C | 0.0132
16 | C82G A111G A120G A145C C150A U176G | 0.00588
17 | C82G A111G A120G A145C C150G | 0.00711
18 | C82G A111G A120G A145C C150G C169A | 0.00962
19 | C82G A111G A120G A145C C150G C169A U176A | 0.0102
20 | C82G A111G A120G A145C C150G C169A U176C | 0.009
21 | C82G A111G A120G A145C C150G C169A U176G | 0.00562

Row | Variant | reverse-splicing fitness
22 | C82G A111G A120G A145C C150G C169G | 0.00841
23 | C82G A111G A120G A145C C150G C169G U176A | 0.00914
24 | C82G A111G A120G A145C C150G C169G U176C | 0.00887
25 | C82G A111G A120G A145C C150G C169G U176G | 0.00523
26 | C82G A111G A120G A145C C150G C169U | 0.00843
27 | C82G A111G A120G A145C C150G C169U U176A | 0.0139
28 | C82G A111G A120G A145C C150G C169U U176C | 0.0147
29 | C82G A111G A120G A145C C150G C169U U176G | 0.00615
30 | C82G A111G A120G A145C C150G U176A | 0.0082
31 | C82G A111G A120G A145C C150G U176C | 0.0133
32 | C82G A111G A120G A145C C150G U176G | 0.00368
33 | C82G A111G A120G A145C C150U | 0.00975
34 | C82G A111G A120G A145C C150U C169A | 0.00962
35 | C82G A111G A120G A145C C150U C169A U176A | 0.0167
36 | C82G A111G A120G A145C C150U C169A U176C | 0.00841
37 | C82G A111G A120G A145C C150U C169A U176G | 0.00578
38 | C82G A111G A120G A145C C150U C169G | 0.0111
39 | C82G A111G A120G A145C C150U C169G U176A | 0.022
40 | C82G A111G A120G A145C C150U C169G U176C | 0.0155
41 | C82G A111G A120G A145C C150U C169G U176G | 0.00557
42 | C82G A111G A120G A145C C150U C169U | 0.0088

Row | Variant | reverse-splicing fitness
43 | C82G A111G A120G A145C C150U C169U U176A | 0.0174
44 | C82G A111G A120G A145C C150U C169U U176C | 0.0151
45 | C82G A111G A120G A145C C150U C169U U176G | 0.00538
46 | C82G A111G A120G A145C C150U U176A | 0.0118
47 | C82G A111G A120G A145C C150U U176C | 0.0149
48 | C82G A111G A120G A145C C150U U176G | 0.00599
49 | C82G A111G A120G A145C C169A | 0.0114
50 | C82G A111G A120G A145C C169A U176A | 0.0165
51 | C82G A111G A120G A145C C169A U176C | 0.0114
52 | C82G A111G A120G A145C C169A U176G | 0.00415
53 | C82G A111G A120G A145C C169G | 0.0204
54 | C82G A111G A120G A145C C169G U176A | 0.0262
55 | C82G A111G A120G A145C C169G U176C | 0.0207
56 | C82G A111G A120G A145C C169G U176G | 0.00483
57 | C82G A111G A120G A145C C169U | 0.0132
58 | C82G A111G A120G A145C C169U U176A | 0.0179
59 | C82G A111G A120G A145C C169U U176C | 0.0166
60 | C82G A111G A120G A145C C169U U176G | 0.00427
61 | C82G A111G A120G A145C U176A | 0.0154
62 | C82G A111G A120G A145C U176C | 0.0181
63 | C82G A111G A120G A145C U176G | 0.0063

Row | Variant | reverse-splicing fitness
64 | C82G A111G A120G A145G | 0.0179
65 | C82G A111G A120G A145G C150A | 0.0101
66 | C82G A111G A120G A145G C150A C169A | 0.0113
67 | C82G A111G A120G A145G C150A C169A U176A | 0.0204
68 | C82G A111G A120G A145G C150A C169A U176C | 0.0231
69 | C82G A111G A120G A145G C150A C169A U176G | 0.00774
70 | C82G A111G A120G A145G C150A C169G | 0.0102
71 | C82G A111G A120G A145G C150A C169G U176A | 0.0177
72 | C82G A111G A120G A145G C150A C169G U176C | 0.0272
73 | C82G A111G A120G A145G C150A C169G U176G | 0.00618
74 | C82G A111G A120G A145G C150A C169U | 0.0102
75 | C82G A111G A120G A145G C150A C169U U176A | 0.0177
76 | C82G A111G A120G A145G C150A C169U U176C | 0.0177
77 | C82G A111G A120G A145G C150A C169U U176G | 0.00809
78 | C82G A111G A120G A145G C150A U176A | 0.0107
79 | C82G A111G A120G A145G C150A U176C | 0.0232
80 | C82G A111G A120G A145G C150A U176G | 0.0096
81 | C82G A111G A120G A145G C150G | 0.00815
82 | C82G A111G A120G A145G C150G C169A | 0.00957
83 | C82G A111G A120G A145G C150G C169A U176A | 0.0146
84 | C82G A111G A120G A145G C150G C169A U176C | 0.0138
